Data as given in patent US20110311522A1.

How the values were obtained:
[1] = biological target: phage peptides (screening product screened with 8G9 from twelve-peptide library)
[2] = biological target: hemagglutinin (HA) of H5N1 virus strain GD3.1 (H5N1 avian influenza virus, strain GD3.1); assay: cell-based or functional assay
[3] = biological target: hemagglutinin (HA) of H5N1 virus strain GD1.1 (H5N1 avian influenza virus, strain GD1.1); assay: cell-based or functional assay
[4] = biological target: 14 strains of non-H5 viruses (H1~H13, Chicken NDV); assay: cell-based or functional assay
[5] = biological target: hemagglutinin (HA) of H5N1 virus strain HN3.1 (H5N1 avian influenza virus, strain HN3.1); assay: cell-based or functional assay
[6] = biological target: H5 virus strain (fifteen strains of H5N1 viruses); assay: cell-based or functional assay
[7] = biological target: hemagglutinin (HA) of H5N1 virus strain IDN6.1 (H5N1 avian influenza virus, strain IDN6.1); assay: cell-based or functional assay
[8] = biological target: hemagglutinin (HA) of H5N1 virus strain VTM1.1 (H5N1 avian influenza virus, strain VTM1.1); assay: cell-based or functional assay
[9] = biological target: hemagglutinin (HA) of H5N1 virus strain Mixed1.1 (H5N1 avian influenza virus, strain Mixed1.1); assay: cell-based or functional assay
[10] = biological target: hemagglutinin (HA) of H5N1 virus strain GD4.1 (H5N1 avian influenza virus, strain GD4.1); assay: cell-based or functional assay
[11] = biological target: hemagglutinin (HA) of H5N1 virus strain FJ1.5 (H5N1 avian influenza virus, strain FJ1.5); assay: cell-based or functional assay
[12] = biological target: hemagglutinin (HA) of H5N1 virus strain IDN1.1 (H5N1 avian influenza virus, strain IDN1.1); assay: cell-based or functional assay
[13] = biological target: hemagglutinin (HA) of H5N1 virus strain QH1.1 (H5N1 avian influenza virus, strain QH1.1); assay: cell-based or functional assay
[14] = biological target: hemagglutinin (HA) of H5N1 virus strain YN2.1 (H5N1 avian influenza virus, strain YN2.1); assay: cell-based or functional assay
[15] = biological target: hemagglutinin (HA) of H5N1 virus strain IDN8.1 (H5N1 avian influenza virus, strain IDN8.1); assay: cell-based or functional assay
[16] = biological target: hemagglutinin (HA) of H5N1 virus strain VTM4.1 (H5N1 avian influenza virus, strain VTM4.1); assay: cell-based or functional assay
[17] = biological target: hemagglutinin (HA) of H5N1 virus strain IDN3.1 (H5N1 avian influenza virus, strain IDN3.1); assay: cell-based or functional assay
[18] = biological target: hemagglutinin (HA) of H5N1 virus strain VNM2-2.1 (H5N1 avian influenza virus, strain VNM2-2.1); assay: cell-based or functional assay
[19] = biological target: hemagglutinin (HA) of H5N1 virus strain B7 (H5N1 avian influenza virus, strain B7); assay: cell-based or functional assay
[20] = biological target: hemagglutinin (HA) of H5N1 virus strain B3 (H5N1 avian influenza virus, strain B3); assay: cell-based or functional assay
[21] = biological target: hemagglutinin (HA) of H5N1 virus strain A8 (H5N1 avian influenza virus, strain A8); assay: cell-based or functional assay
[22] = biological target: hemagglutinin (HA) of H5N1 virus strain C2 (H5N1 avian influenza virus, strain C2); assay: cell-based or functional assay
[23] = biological target: hemagglutinin (HA) of H5N1 virus strain D1 (H5N1 avian influenza virus, strain D1); assay: cell-based or functional assay
[24] = biological target: hemagglutinin (HA) of H5N1 virus strain F3 (H5N1 avian influenza virus, strain F3); assay: cell-based or functional assay
[25] = biological target: hemagglutinin (HA) of H5N1 virus strain B6 (H5N1 avian influenza virus, strain B6); assay: cell-based or functional assay
[26] = biological target: hemagglutinin (HA) of H5N1 virus strain A2 (H5N1 avian influenza virus, strain A2); assay: cell-based or functional assay
[27] = biological target: hemagglutinin (HA) of H5N1 virus strain A7 (H5N1 avian influenza virus, strain A7); assay: cell-based or functional assay
[28] = biological target: hemagglutinin (HA) of H5N1 virus strain F4 (H5N1 avian influenza virus, strain F4); assay: cell-based or functional assay
[29] = biological target: hemagglutinin (HA) of H5N1 virus strain B8 (H5N1 avian influenza virus, strain B8); assay: cell-based or functional assay
[30] = biological target: hemagglutinin (HA) of H5N1 virus strain F2 (H5N1 avian influenza virus, strain F2); assay: cell-based or functional assay
[31] = biological target: hemagglutinin (HA) of H5N1 virus strain B1 (H5N1 avian influenza virus, strain B1); assay: cell-based or functional assay
[32] = biological target: hemagglutinin (HA) of H5N1 virus strain D2 (H5N1 avian influenza virus, strain D2); assay: cell-based or functional assay
[33] = biological target: hemagglutinin (HA) of H5N1 virus strain E1 (H5N1 avian influenza virus, strain E1); assay: cell-based or functional assay
[34] = biological target: hemagglutinin (HA) of H5N1 virus strain H2 (H5N1 avian influenza virus, strain H2); assay: cell-based or functional assay
[35] = biological target: hemagglutinin (HA) of H5N1 virus strain G1 (H5N1 avian influenza virus, strain G1); assay: cell-based or functional assay
[36] = biological target: hemagglutinin (HA) of H5N1 virus strain B4 (H5N1 avian influenza virus, strain B4); assay: cell-based or functional assay
[37] = biological target: hemagglutinin (HA) of H5N1 virus strain D3 (H5N1 avian influenza virus, strain D3); assay: cell-based or functional assay
[38] = biological target: hemagglutinin (HA) of H5N1 virus strain C3 (H5N1 avian influenza virus, strain C3); assay: cell-based or functional assay
[39] = biological target: hemagglutinin (HA) of H5N1 virus strain E2 (H5N1 avian influenza virus, strain E2); assay: cell-based or functional assay
[40] = biological target: hemagglutinin (HA) of H5N1 virus strain A3 (H5N1 avian influenza virus, strain A3); assay: cell-based or functional assay
[41] = biological target: hemagglutinin (HA) of H5N1 virus strain A1 (H5N1 avian influenza virus, strain A1); assay: cell-based or functional assay
[42] = biological target: hemagglutinin (HA) of H5N1 virus strain A6 (H5N1 avian influenza virus, strain A6); assay: cell-based or functional assay

B1: monoclonal antibody 8G9 (antibody, V domains shown)
VH: QVQLQQPGVELVRPGASVKLSCKASGYTFTSFWMNWVKQRPDQGLEWIGRIDPYDSETHYNQKFKDKAILTVDKSSSTAYMQLSSLTSEDSAVYYCGRGIATLMVLPDYWGQGTSVTVSS
VL: DILMTQSPSSMSVSLGDTVSITCHASQDISSNMGWLQQKPGKSLKGLIYHGTNLEDGVPSRFSGSGSGPDYSLTISSLESEDFADYYCVQYIQFPWTFGGGTKLEIKR
[1]
  OD value relative to that of the control antibodies: > 3 fold
[2]
  Hamaglutinin inhibition titer: 12800 titer
  Neutralization titer: 12800 titer
[3]
  Hamaglutinin inhibition titer: 12800 titer
  Neutralization titer: 12800 titer
[4]
  Positive number/total virus number, hemagglutination inhibition assay (of 14 virus strains positive): 0
[5]
  Hamaglutinin inhibition titer: 12800 titer
  Neutralization titer: 12800 titer
[6]
  Positive number/total virus number, hemagglutination inhibition assay (of 15 virus strains positive): 15
[7]
  Hamaglutinin inhibition titer: 12800 titer
  Neutralization titer: 12800 titer
[8]
  Hamaglutinin inhibition titer: 12800 titer
  Neutralization titer: 12800 titer
[9]
  Hamaglutinin inhibition titer: 12800 titer
  Neutralization titer: 12800 titer
[10]
  Hamaglutinin inhibition titer: 12800 titer
  Neutralization titer: 12800 titer
[11]
  Hamaglutinin inhibition titer: 12800 titer
  Neutralization titer: 12800 titer
[12]
  Hamaglutinin inhibition titer: 12800 titer
  Neutralization titer: 12800 titer
[13]
  Hamaglutinin inhibition titer: 12800 titer
  Neutralization titer: 12800 titer
[14]
  Hamaglutinin inhibition titer: 12800 titer
  Neutralization titer: 12800 titer
[15]
  Hamaglutinin inhibition titer: 12800 titer
  Neutralization titer: 12800 titer
[16]
  Hamaglutinin inhibition titer: 12800 titer
  Neutralization titer: 12800 titer
[17]
  Hamaglutinin inhibition titer: 12800 titer
  Neutralization titer: 12800 titer
[18]
  Hamaglutinin inhibition titer: 12800 titer
  Neutralization titer: 12800 titer

B2: monoclonal antibody 13D4 (antibody, V domains shown)
VH: QVQLQQSGAELMKPGASVKISCKATGYTFSGHWIEWVKQRPGHGLEWIGEILPGSGNIHYNEKFKGKATFAADTSSNTAYMQLSSLTSEDSAVYYCARLGTTAVERDWYFDVWGQGTTVTESL
VL: DIVMTQSQKFMSASVGDRVSVTCKASQNVGTHLAWYQQKPGQSPKALIYSASYRYSGVPDRFTGSGSGTDFTLTISNVQSGDLADYFCQQYNNFPLTFGAGTKLEIKR
[19]
  HI titer (hemagglutinin inhibition assay) (n (HI titer = 2^n)): 7
[20]
  HI titer (hemagglutinin inhibition assay) (n (HI titer = 2^n)): 3
[21]
  HI titer (hemagglutinin inhibition assay) (n (HI titer = 2^n)): 5
[2]
  Hamaglutinin inhibition titer: 12800 titer
  Neutralization titer: 12800 titer
[3]
  Hamaglutinin inhibition titer: 6400 titer
  Neutralization titer: 12800 titer
[22]
  HI titer (hemagglutinin inhibition assay) (n (HI titer = 2^n)): 3
[4]
  Positive number/total virus number, hemagglutination inhibition assay (of 14 virus strains positive): 0
[5]
  Hamaglutinin inhibition titer: 12800 titer
  Neutralization titer: 12800 titer
[23]
  HI titer (hemagglutinin inhibition assay) (n (HI titer = 2^n)): 5
[6]
  Positive number/total virus number, hemagglutination inhibition assay (of 15 virus strains positive): 15
[7]
  Hamaglutinin inhibition titer: 12800 titer
  Neutralization titer: 12800 titer
[8]
  Hamaglutinin inhibition titer: 6400 titer
  Neutralization titer: 12800 titer
[9]
  Hamaglutinin inhibition titer: 6400 titer
  Neutralization titer: 12800 titer
[10]
  Hamaglutinin inhibition titer: 12800 titer
  Neutralization titer: 12800 titer
[24]
  HI titer (hemagglutinin inhibition assay) (n (HI titer = 2^n)): > 8
[25]
  HI titer (hemagglutinin inhibition assay) (n (HI titer = 2^n)): > 8
[26]
  HI titer (hemagglutinin inhibition assay) (n (HI titer = 2^n)): 7
[27]
  HI titer (hemagglutinin inhibition assay) (n (HI titer = 2^n)): 4
[11]
  Hamaglutinin inhibition titer: 12800 titer
  Neutralization titer: 12800 titer
[12]
  Hamaglutinin inhibition titer: 12800 titer
  Neutralization titer: 12800 titer
[28]
  HI titer (hemagglutinin inhibition assay) (n (HI titer = 2^n)): 1
[29]
  HI titer (hemagglutinin inhibition assay) (n (HI titer = 2^n)): > 8
[13]
  Hamaglutinin inhibition titer: 12800 titer
  Neutralization titer: 12800 titer
[30]
  HI titer (hemagglutinin inhibition assay) (n (HI titer = 2^n)): 5
[31]
  HI titer (hemagglutinin inhibition assay) (n (HI titer = 2^n)): > 8
[32]
  HI titer (hemagglutinin inhibition assay) (n (HI titer = 2^n)): 5
[33]
  HI titer (hemagglutinin inhibition assay) (n (HI titer = 2^n)): 7
[34]
  HI titer (hemagglutinin inhibition assay) (n (HI titer = 2^n)): 3
[14]
  Hamaglutinin inhibition titer: 12800 titer
  Neutralization titer: 12800 titer
[15]
  Hamaglutinin inhibition titer: 12800 titer
  Neutralization titer: 12800 titer
[16]
  Hamaglutinin inhibition titer: 12800 titer
  Neutralization titer: 12800 titer
[35]
  HI titer (hemagglutinin inhibition assay) (n (HI titer = 2^n)): 4
[36]
  HI titer (hemagglutinin inhibition assay) (n (HI titer = 2^n)): 5
[17]
  Hamaglutinin inhibition titer: 12800 titer
  Neutralization titer: 12800 titer
[37]
  HI titer (hemagglutinin inhibition assay) (n (HI titer = 2^n)): 6
[38]
  HI titer (hemagglutinin inhibition assay) (n (HI titer = 2^n)): 4
[39]
  HI titer (hemagglutinin inhibition assay) (n (HI titer = 2^n)): 6
[40]
  HI titer (hemagglutinin inhibition assay) (n (HI titer = 2^n)): 6
[41]
  HI titer (hemagglutinin inhibition assay) (n (HI titer = 2^n)): > 8
[42]
  HI titer (hemagglutinin inhibition assay) (n (HI titer = 2^n)): 3
[18]
  Hamaglutinin inhibition titer: 12800 titer
  Neutralization titer: 12800 titer
